B1: Growth/differentiation factor 11 (Mus musculus), Q9Z1W4 (parent)
chain: MVLAAPLLLGFLLLALELRPRGEAAEGPAAAAAAAAAAAGVGGERSSRPAPSAPPEPDGCPVCVWRQHSRELRLESIKSQILSKLRLKEAPNISREVVKQLLPKAPPLQQILDLHDFQGDALQPEDFLEEDEYHATTETVISMAQETDPAVQTDGSPLCCHFHFSPKVMFTKVLKAQLWVYLRPVPRPATVYLQILRLKPLTGEGTAGGGGGGRRHIRIRSLKIELHSRSGHWQSIDFKQVLHSWFRQPQSNWGIEINAFDPSGTDLAVTSLGPGAEGLHPFMELRVLENTKRSRRNLGLDCDEHSSESRCCRYPLTVDFEAFGWDWIIAPKRYKANYCSGQCEYMFMQKYPHTHLVQQANPRGSAGPCCTPTKMSPINMLYFNDKQQIIYGKIPGMVVDRCGCS
B2: Growth/differentiation factor 11 (Mus musculus), Q9Z1W4 (parent)
chain: B1 chain
partner: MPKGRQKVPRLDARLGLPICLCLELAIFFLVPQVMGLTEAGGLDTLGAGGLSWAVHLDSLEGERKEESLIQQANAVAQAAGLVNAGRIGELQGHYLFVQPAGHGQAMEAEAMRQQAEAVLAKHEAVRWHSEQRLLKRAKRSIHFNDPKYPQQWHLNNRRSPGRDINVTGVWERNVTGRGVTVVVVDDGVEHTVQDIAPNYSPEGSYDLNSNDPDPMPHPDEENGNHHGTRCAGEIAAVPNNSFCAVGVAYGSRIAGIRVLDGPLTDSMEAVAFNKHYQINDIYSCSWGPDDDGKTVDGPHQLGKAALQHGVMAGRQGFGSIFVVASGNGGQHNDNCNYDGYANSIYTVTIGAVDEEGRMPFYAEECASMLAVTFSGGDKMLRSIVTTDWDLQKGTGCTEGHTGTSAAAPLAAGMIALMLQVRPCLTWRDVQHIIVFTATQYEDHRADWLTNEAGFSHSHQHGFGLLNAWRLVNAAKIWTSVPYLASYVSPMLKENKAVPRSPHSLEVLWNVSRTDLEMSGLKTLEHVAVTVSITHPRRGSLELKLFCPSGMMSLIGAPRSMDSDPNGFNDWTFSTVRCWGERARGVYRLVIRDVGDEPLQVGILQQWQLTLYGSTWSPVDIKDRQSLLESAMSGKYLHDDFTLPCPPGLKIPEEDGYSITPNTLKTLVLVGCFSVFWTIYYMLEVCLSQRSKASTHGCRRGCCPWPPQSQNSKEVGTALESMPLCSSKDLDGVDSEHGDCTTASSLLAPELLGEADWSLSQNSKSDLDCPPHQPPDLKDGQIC
B3: Growth/differentiation factor 11 (Mus musculus), Q9Z1W4 (parent)
chain: B1 chain
partner: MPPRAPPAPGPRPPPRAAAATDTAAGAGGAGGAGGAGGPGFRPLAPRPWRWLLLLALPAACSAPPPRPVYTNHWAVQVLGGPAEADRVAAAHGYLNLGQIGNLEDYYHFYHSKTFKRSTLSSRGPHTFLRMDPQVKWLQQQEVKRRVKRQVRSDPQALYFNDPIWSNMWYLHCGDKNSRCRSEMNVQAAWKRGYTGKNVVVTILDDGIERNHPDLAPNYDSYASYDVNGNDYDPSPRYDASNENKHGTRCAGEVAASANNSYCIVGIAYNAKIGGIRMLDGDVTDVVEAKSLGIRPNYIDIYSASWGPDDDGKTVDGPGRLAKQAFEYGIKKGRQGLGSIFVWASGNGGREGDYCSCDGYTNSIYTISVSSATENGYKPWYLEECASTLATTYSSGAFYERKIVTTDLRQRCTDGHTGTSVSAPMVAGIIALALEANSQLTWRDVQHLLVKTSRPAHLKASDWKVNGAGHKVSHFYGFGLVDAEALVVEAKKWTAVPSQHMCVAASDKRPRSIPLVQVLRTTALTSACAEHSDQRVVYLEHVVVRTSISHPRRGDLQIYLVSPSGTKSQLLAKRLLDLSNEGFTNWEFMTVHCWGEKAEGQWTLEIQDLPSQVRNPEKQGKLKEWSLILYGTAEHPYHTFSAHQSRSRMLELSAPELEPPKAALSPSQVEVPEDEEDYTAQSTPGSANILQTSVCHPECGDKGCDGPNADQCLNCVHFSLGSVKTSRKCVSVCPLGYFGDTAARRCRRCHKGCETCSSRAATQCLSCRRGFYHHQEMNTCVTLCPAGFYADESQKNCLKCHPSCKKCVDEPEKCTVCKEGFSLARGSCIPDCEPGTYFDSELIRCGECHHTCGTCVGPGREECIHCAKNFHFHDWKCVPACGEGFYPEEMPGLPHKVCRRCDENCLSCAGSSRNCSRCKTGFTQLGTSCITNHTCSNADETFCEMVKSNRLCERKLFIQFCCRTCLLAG
B4: Growth/differentiation factor 11 (Mus musculus), Q9Z1W4 (parent)
chain: B1 chain
partner: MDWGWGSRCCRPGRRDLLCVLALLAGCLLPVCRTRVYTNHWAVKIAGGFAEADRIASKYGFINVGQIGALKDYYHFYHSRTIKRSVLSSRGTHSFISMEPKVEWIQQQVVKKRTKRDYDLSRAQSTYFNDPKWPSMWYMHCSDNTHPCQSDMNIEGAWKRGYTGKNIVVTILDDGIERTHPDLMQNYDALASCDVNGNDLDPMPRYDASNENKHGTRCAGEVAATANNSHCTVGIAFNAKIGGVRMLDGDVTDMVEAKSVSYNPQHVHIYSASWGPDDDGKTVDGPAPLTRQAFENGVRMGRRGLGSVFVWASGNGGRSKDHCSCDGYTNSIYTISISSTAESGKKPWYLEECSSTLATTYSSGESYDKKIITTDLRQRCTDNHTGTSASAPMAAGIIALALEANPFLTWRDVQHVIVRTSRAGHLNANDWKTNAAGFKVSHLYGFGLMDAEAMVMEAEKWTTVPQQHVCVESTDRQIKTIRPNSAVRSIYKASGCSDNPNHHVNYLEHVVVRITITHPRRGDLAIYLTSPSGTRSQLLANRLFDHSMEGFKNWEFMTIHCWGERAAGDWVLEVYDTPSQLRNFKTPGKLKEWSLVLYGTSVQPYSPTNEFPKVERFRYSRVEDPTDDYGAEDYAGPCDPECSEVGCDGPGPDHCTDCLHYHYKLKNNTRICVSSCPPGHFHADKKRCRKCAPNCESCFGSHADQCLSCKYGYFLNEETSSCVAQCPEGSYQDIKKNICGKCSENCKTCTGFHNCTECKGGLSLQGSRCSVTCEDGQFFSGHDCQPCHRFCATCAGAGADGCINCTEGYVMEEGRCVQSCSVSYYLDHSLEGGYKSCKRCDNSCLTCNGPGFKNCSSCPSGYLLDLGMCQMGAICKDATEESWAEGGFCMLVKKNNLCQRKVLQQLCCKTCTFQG

Variants of: B1
Conditions: with furin_human FURIN

effect of a mutation on the interaction	Variant
increasing interaction	N297D

Variants of: B2
Conditions: with pcsk7_rat Pcsk7, Q62849

effect of a mutation on the interaction	Variant
increasing interaction	N297D

Variants of: B3
Conditions: with PCSK6, P29122-1

effect of a mutation on the interaction	Variant
increasing interaction	N297D

Variants of: B4
Conditions: with Pcsk5, P41413-2

effect of a mutation on the interaction	Variant
increasing interaction	N297D

— IntAct's records for PubMed 18378898
